Experimental data: article PMC11333002, “Molecular dynamics simulations reveal how vinculin refolds partially unfolded talin rod helices to stabilize them against mechanical force” (PLOS Computational Biology, 2024)

How the values were obtained:
[1] = Circular dichroism thermal denaturation; format: physicochemical; conditions: 0.45 mg/mL protein, PBS pH 7.4, 222 nm, 20–90°C
Description: The VD1 domain of mouse vinculin (mVD1) was obtained as a codon-optimized synthetic gene in pET151 (GeneArt). The Q19S point mutation was introduced by site-directed mutagenesis and the sequence was verified.
Proteins were purified by nickel-affinity chromatography, followed by anion exchange chromatography. Briefly, cells were thawed, supplemented with 1 mM PMSF and 0.2% v/v Triton X-100 and lysed by sonication. Cell debris were removed by centrifugation and the supernatant was filtered and loaded onto a 5 mL HisTrap HP column (Cytiva) using an AKTA Start (GE Healthcare). The column was washed with buffer containing 50 mM Tris-HCl pH 8, 600 mM NaCl, 30 mM imidazole, 4 mM MgCl2, 4 mM ATP, 5% v/v glycerol, 0.2% v/v Triton X-100 and bound protein was eluted across a 75 mL linear gradient of 0–300 mM Imidazole. Fractions containing mVD1 were pooled, supplemented with AcTEV protease (Invitrogen) to remove the His-Tag and dialyzed against 20 mM Tris-HCl pH 8, 50 mM NaCl. Protein was loaded onto a 5 mL HiTrap Q (Cytiva), eluted across a 75 mL linear gradient of 50–750 mM NaCl, dialyzed against phosphate buffered saline (PBS) pH 7.4, snap-frozen in liquid nitrogen and stored at -80°C.
Circular dichroism was performed using a JASCO J-715 spectropolarimeter with 0.45 mg/mL protein samples in PBS pH 7.4. […]

[2] = Size exclusion chromatography, oligomeric state; format: physicochemical; conditions: 100 μL at 100 μM, Superdex S200 Increase 10/300, PBS pH 7.4 with 5 mM DTT, 280 nm
Description: Samples of 100 μL protein at 100 μM protein concentration were injected onto a Superdex G-200 increase 10/300 (GE Healthcare) at 0.75 mL/min in PBS pH 7.4 (supplemented with 5 mM DTT) using an AKTA Pure (GE Healthcare), monitoring absorbance at 280 nm.

[3] = target: mouse talin1 R1 VBS (H4) peptide; experiment: Fluorescence polarisation binding of VD1 to VBS peptide; conditions: fluorescein-labelled talin1 H4 peptide 700 nM, 2-fold serial dilution of protein, 25°C, triplicate, one-site total binding
Description: The mouse talin1 R1 VBS (H4) peptide (C-[…]) was synthesized by GLBiochem (Shanghai) with a non-native, N-terminal cysteine residue. The peptide was coupled with a maleimide-fluorescein dye (Thermo Fisher Scientific) following the manufacturers protocol. Assays were performed in triplicate with a 2-fold serial dilution of protein, with VBS peptide at 700 nM. Fluorescence polarization was measured using a CLARIOstar plate reader (BMGLabTech) at 25°C (excitation: 482 ± 8 nm; emission: 530 ± 20 nm). Data were analyzed using GraphPad Prism 8 software and Kd values were generated using the one-site total binding equation.

talin1 H12 R3 = experiment: Biosensor analysis (biolayer interferometry, Octet RED384); format: binding; conditions: immobilized biotinylated H12 R3, VD1 16 μM to 15.6 nM, 28°C, pH 7.4, association 600 s, dissociation 1200 s, global fit
Description: Solid-phase synthesized talin1 H12 R3 (C-[…]) with free N-terminal cysteine was labelled with maleimide-PEG2-biotin (Thermo Fisher Scientific A39261). Lyophilized peptide was dissolved in PBS pH 7.4 and reduced at 100 μM peptide concentration with 250 μM TCEP in PBS supplemented with 0.25% Triton-X100 for 10 min at RT. Maleimide-PEG2-biotin was added at 5-fold molar excess (500 μM) and incubation continued for 2 hours at RT, mixing at 30 rpm. The reaction was quenched with β-mercaptoethanol added at 5-fold molar excess over maleimide-PEG2-biotin (2.5 mM) for 20 min at RT. Biotin-labelled peptide was purified using a PD10 desalting column (G25 resin, Cytiva Life Sciences) equilibrated with PBS. Elution fractions containing biotinylated peptide were identified using PageBlue-staining (Thermo Fisher Scientific) of glutaraldehyde-fixed (5%, 2 hours) Bolt BisTris Plus 4–12% SDS-PAGE gels (Thermo Fisher Scientific). The concentration of pooled elution fractions was determined using Pierce BCA microplate assay (Thermo Fisher Scientific) measured with Victor Nivo at 562 nm (PerkinElmer). Aliquoted peptide was flash-frozen with liquid nitrogen and stored at -80°C.
The binding and dissociation kinetics of recombinant WT and Q19S vinculin VD1 to talin1 H12 R3 were determined using ForteBio Octet RED384. […]

Kd [3]: 350 nM
B1: wild-type VD1: VD1 domain of mouse vinculin; in simulations vinculin head domain 1, residues 1–252 (protein, UniProt Q64727 1-252, looked up, fragment)
chain: MPVFHTRTIESILEPVAQQISHLVIMHEEGEVDGKAIPDLTAPVAAVQAAVSNLVRVGKETVQTTEDQILKRDMPPAFIKVENACTKLVQAAQMLQSDPYSVPARDYLIDGSRGILSGTSDLLLTFDEAEVRKIIRVCKGILEYLTVAEVVETMEDLVTYTKNLGPGMTKMAKMIDERQQELTHQEHRVMLVNSMNTVKELLPVLISAMKIFVTTKNSKNQGIEEALKNRNFTVEKMSAEINEIIRVLQLTS
modifications: VD1 domain
melting temperature, Tm [1]: 60 °C
oligomeric state in solution [2]: monomeric in solution
binding and dissociation kinetics (KD, kon, koff) (talin1 H12 R3): did not reveal significant differences in the binding or dissociation kinetics
